Reference: IntAct's records for PubMed 15299139

B1: Axial regulator YABBY 4 (Arabidopsis thaliana (Mouse-ear cress)), Q9LDT3 (parent)
chain: MTKLPNMTTTLNHLFDLPGQICHVQCGFCTTILLVSVPFTSLSMVVTVRCGHCTSLLSVNLMKASFIPLHLLASLSHLDETGKEEVAATDGVEEEAWKVNQEKENSPTTLVSSSDNEDEDVSRVYQVVNKPPEKRQRAPSAYNCFIKEEIRRLKAQNPSMAHKEAFSLAAKNWAHFPPAHNKRAASDQCFCEEDNNAILPCNVFEDHEESNNGFRERKAQRHSIWGKSPFE
partner: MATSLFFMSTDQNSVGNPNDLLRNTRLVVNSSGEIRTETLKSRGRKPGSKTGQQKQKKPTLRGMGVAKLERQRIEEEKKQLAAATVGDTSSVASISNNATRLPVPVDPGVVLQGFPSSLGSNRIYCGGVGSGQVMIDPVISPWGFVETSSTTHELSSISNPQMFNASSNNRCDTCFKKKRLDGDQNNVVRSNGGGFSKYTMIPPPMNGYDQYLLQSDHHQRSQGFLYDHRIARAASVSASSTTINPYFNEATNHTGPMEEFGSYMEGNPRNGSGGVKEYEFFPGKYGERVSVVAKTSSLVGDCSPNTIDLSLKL

Variants of: B1
Conditions: with spl_arath SPL

Row | effect of a mutation on the interaction | Variant
1 | decreasing interaction | MTKLPNMTTTLNHLFDLPGQICHVQCGFSTTILLVSVPFTSLSMVVTVRCGHCTSLLSVNLMKASFIPLHLLASLSHLDETGKEEVAATDGVEEEAWKVNQEKENSPTTLVSSSDNEDEDVSRVYQVVNKPPEKRQRAPSAYNCFIKEEIRRLKAQNPSMAHKEAFSLAAKNWAHFPPAHNKRAASDQCFCEEDNNAILPCNVFEDHEESNNGFRERKAQRHSIWGKSPFE [C29S]
